Source: article PMC4169731 (Peptides, 2014)
Values joined by “and” are separate entries in the source; they are usually repeats but may differ in a detail not shown here. Equal entries are not always repeated. Where a SMILES comes first, the peptide text is derived from it. The star is where a group is joined. 124I = [124I]*; 125I = [125I]*

What was measured:
Assay type in all cases: in vivo, mouse
AA amyloid deposits [1] = assay: Longitudinal SPECT/CT imaging of ^125I-p5 in AA mice
AA amyloid deposits [2] = assay: Tissue biodistribution of ^124I radioactivity; conditions: 120 min pi of ^124I-p5; n = 3; more in AA mice
[3] = Dynamic PET/CT imaging of ^124I-p5, time activity curves, healthy; conditions: WT mice, ^124I-p5 IV
[4] = Dynamic PET/CT imaging of ^124I-p5 in mice; conditions: ^124I-p5 IV, dynamic PET
[5] = tested on: amyloid-laden (AA) H2-L^d-HuIL-6 Tg BALB/c mice; assay: Dynamic PET/CT imaging of ^124I-p5, time activity curves, amyloid-laden
AA amyloid deposits [6] = conditions: ^125I-p5; 72 h pi; AA mice; microautoradiography
[7] = dynamic PET 2 h, double exponential fit
[8] = dynamic PET 2 h, single exponential fit
[9] = AA mice, ^124I-p5 IV, dynamic PET 2 h, double exponential fit
[10] = AA mice, ^124I-p5 IV, dynamic PET 2 h, single exponential fit
[11] = higher in AA mice, biexponential decay, dynamic PET

## C[C@H](NC(=O)[C@H](CCC(N)=O)NC(=O)[C@H](C)NC(=O)[C@H](CCCCN)NC(=O)[C@H](CCC(N)=O)NC(=O)[C@H](C)NC(=O)[C@H](CCCCN)NC(=O)[C@H](CCC(N)=O)NC(=O)[C@H](C)NC(=O)[C@H](CCC(N)=O)NC(=O)[C@H](CCCCN)NC(=O)[C@H](C)NC(=O)[C@H](CCC(N)=O)NC(=O)[C@H](CCCCN)NC(=O)[C@H](C)NC(=O)[C@H](CCC(N)=O)NC(=O)[C@H](C)NC(=O)[C@H](CCCCN)NC(=O)[C@H](CCC(N)=O)NC(=O)[C@H](C)NC(=O)[C@H](CCCCN)NC(=O)[C@H](CO)NC(=O)[C@H](Cc1ccc(O)cc1)NC(=O)CNC(=O)CNC(=O)CN)C(=O)N[C@@H](CCCCN)C(=O)N[C@@H](CCC(N)=O)C(=O)N[C@@H](C)C(=O)N[C@@H](CCCCN)C(=O)N[C@@H](CCC(N)=O)C(=O)O [p5] (H-GGGYSKAQKAQAKQAKQAQKAQKAQAKQAKQ-OH)
AA amyloid deposits [1]; mice
  Time the peptide remains bound to amyloid in vivo: at least 3 days
AA amyloid deposits [1]; mice, pi
  Time the peptide remains stably bound to amyloid deposits and radioactive: at least 72 h

## ^124I-p5: peptide p5 radiolabeled with ^124I on Tyr using Iodogen, for PET imaging (H-GGGY(124I)SKAQKAQAKQAKQAQKAQKAQAKQAKQ-OH)
AA amyloid deposits [2]
  Radioactivity (%ID/g) in liver, pancreas and spleen, AA mice compared to WT mice: ~ 10 fold
[3]; dynamic PET
  Lag time (tlag) before accumulation of radioactivity in stomach: ~ 8 min
  Time of peak activity in the kidneys (tmax): ~ 7 min
[3]; [7]
  T1/2 fast, liver: 0.70 min
  T1/2 slow, blood: 37.99 min
  T1/2 slow, liver: 20.82 min
[3]; dynamic PET 2 h, single exponential decay after peak
  Kfast, kidney: 0.06 min⁻¹ and 0.06 ± 0.001 min⁻¹
[3]; [8]
  T1/2 fast, kidney: 10.96 min
  T1/2 fast, spleen: 11.19 min
  T1/2 fast, thyroid: 20.67 min
[4]; WT and AA not distinguished
  Lag time (tlag) of thyroid radioactivity: ~ 8 min
[4]; by 5 min pi
  Radioactivity removed from the blood pool: ~ 90%
[5]; AA mice, ^124I-p5 IV, dynamic PET
  Lag time (tlag) before accumulation of radioactivity in stomach: ~ 8 min
[5]; AA mice, ^124I-p5 IV, dynamic PET 2 h, double exponential association
  Kslow, liver: 0.17 ± 0.01 min⁻¹
[5]; [9]
  Kslow, blood (heart ROI): 0.49 ± 0.04 min⁻¹
  T1/2 fast, blood: 0.49 min
  T1/2 fast, liver: 0.31 min
[5]; AA mice, ^124I-p5 IV, dynamic PET 2 h, single exponential association
  Kfast, spleen: 0.04 ± 0.00 min⁻¹
[5]; [10]
  Kfast, kidney: 0.04 min⁻¹ and 0.04 ± 0.003 min⁻¹
  T1/2 fast, kidney: 16.62 min
  T1/2 fast, spleen: 15.62 min
[5]; [11]
  Blood pool Kfast (α component), AA mice relative to WT mice: > 2 fold
  Blood pool Kslow (β), AA mice relative to WT mice: > 2 fold

## ^125I-p5: peptide p5 radioiodinated with ^125I using chloramine T, for SPECT imaging (H-GGGY(125I)SKAQKAQAKQAKQAQKAQKAQAKQAKQ-OH)
AA amyloid deposits [1]; AA mice, ^125I-p5, 72 h pi, SPECT
  Loss of radioactivity from major amyloid organs (liver, spleen and pancreas): essentially no loss of radioactivity
AA amyloid deposits [1]; AA mice, ~5 μg ^125I-p5 (~150 μCi) IV, SPECT/CT at 2, 24, 48, 72 h pi
  Time of retention in the liver and spleen: more than 72 h
AA amyloid deposits [6]
  Reactivity with healthy tissues: No significant reactivity
